Data: IntAct's records for PubMed 19412162

Target: fbx31_human FBXO31 (UniProt Q5XUX0)
Chain of UniProt Q5XUX0 (Q5XUX0 whole entry): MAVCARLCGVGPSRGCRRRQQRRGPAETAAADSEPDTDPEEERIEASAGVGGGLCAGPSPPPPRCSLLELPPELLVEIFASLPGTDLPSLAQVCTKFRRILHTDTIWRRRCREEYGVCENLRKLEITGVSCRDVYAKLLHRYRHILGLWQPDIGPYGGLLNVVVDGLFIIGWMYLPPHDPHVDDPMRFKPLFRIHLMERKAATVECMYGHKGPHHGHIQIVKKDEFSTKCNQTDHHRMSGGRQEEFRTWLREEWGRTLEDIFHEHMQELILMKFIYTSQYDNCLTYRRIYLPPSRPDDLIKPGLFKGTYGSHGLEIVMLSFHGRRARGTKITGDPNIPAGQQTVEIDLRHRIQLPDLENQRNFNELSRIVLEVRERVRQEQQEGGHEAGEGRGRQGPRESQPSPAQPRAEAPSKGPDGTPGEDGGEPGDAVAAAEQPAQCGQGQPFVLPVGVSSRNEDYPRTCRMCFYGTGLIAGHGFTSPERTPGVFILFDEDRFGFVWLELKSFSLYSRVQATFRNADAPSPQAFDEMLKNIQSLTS

effect of a mutation on the interaction: disrupting interaction
Substance: Serine-protein kinase ATM (Homo sapiens), Q13315 D2870A;N2875K
